Test results reported in US20190134153A1, “IMMUNOMODULATORY EFFECT OF INHALED KINASE INHIBITOR PEPTIDES IN LUNG” (MOERAE MATRIX, INC., priority 2017, published 2019).

Legend:
Test in all cases: Kinase Profiling Assay
Assay type in all cases: biochemical
Conditions in all cases: 100 μM
[1] = biological target: EGFR(T790M)(h) (Homo sapiens, UniProt P00533, T790M)
[2] = biological target: HIPK3(h) (Homo sapiens, UniProt Q9H422)
[3] = biological target: T1, DYRK2(h) (Homo sapiens, UniProt Q92630)
T1 sequence (Q92630 1-601): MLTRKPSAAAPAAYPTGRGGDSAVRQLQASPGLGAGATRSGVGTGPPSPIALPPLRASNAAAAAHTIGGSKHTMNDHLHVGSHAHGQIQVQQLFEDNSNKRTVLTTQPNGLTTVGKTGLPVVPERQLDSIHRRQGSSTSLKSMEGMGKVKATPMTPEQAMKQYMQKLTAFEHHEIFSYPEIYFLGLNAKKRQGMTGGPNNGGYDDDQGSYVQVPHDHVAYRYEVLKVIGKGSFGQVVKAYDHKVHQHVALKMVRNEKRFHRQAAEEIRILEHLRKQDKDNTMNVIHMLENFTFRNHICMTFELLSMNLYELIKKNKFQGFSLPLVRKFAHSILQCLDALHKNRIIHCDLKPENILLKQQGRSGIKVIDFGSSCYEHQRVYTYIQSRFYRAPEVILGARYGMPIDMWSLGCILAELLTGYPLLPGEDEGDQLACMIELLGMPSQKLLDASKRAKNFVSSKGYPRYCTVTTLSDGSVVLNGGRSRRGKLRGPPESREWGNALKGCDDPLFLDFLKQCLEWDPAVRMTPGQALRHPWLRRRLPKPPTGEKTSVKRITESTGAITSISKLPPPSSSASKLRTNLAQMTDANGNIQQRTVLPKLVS

[4] = biological target: PAK3(h) (Homo sapiens, UniProt O75914)
PAK3(h), sequence (O75914 whole entry): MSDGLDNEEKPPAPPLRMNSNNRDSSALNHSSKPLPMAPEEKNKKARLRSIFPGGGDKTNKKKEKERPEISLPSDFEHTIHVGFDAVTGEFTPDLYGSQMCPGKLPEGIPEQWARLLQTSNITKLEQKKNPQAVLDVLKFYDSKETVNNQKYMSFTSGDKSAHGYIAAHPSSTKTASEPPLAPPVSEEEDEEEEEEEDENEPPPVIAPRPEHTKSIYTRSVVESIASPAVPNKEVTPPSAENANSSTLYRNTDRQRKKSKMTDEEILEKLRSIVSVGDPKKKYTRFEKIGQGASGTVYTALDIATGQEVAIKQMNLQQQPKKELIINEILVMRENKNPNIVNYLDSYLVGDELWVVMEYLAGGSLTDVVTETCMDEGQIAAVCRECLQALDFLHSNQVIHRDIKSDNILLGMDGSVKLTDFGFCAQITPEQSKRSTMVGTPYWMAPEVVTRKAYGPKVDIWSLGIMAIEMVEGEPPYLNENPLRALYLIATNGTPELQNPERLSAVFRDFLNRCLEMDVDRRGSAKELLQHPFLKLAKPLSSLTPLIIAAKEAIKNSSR

[5] = biological target: JNK1α1(h) (Homo sapiens, UniProt P45983)
[6] = biological target: Lck(h) (Homo sapiens, UniProt P06239)
Lck(h), sequence (P06239 whole entry): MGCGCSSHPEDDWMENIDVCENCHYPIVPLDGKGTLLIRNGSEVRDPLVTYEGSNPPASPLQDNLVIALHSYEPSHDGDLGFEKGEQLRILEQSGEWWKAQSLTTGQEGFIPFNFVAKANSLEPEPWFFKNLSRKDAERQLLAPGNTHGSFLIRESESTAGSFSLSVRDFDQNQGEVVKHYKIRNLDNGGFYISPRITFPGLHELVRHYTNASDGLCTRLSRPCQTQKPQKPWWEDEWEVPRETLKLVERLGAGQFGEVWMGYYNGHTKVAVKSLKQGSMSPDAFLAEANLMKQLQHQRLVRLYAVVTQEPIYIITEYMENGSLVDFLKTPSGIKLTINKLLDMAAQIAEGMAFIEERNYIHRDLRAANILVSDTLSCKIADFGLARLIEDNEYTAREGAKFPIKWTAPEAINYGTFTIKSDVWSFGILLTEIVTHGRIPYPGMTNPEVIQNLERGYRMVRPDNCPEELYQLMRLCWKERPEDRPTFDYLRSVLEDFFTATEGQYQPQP

[7] = biological target: Abl (H396P) (h) (Homo sapiens, UniProt P00519, H396P)
[8] = biological target: T2, MKK7β(h) (Homo sapiens, UniProt O14733)
T2 sequence (O14733 1-419): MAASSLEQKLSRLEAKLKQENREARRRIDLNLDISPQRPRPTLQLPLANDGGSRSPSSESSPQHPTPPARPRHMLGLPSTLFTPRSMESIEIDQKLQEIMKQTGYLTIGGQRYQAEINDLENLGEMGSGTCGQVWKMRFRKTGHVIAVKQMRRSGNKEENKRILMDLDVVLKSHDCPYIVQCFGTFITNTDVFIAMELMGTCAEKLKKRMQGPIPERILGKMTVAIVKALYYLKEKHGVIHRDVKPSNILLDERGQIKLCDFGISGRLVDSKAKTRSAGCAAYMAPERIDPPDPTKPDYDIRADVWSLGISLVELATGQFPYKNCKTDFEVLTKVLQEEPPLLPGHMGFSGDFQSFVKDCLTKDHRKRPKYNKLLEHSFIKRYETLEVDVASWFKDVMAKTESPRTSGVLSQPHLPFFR

[9] = biological target: T3, JAK3(h) (Homo sapiens, UniProt P52333)
T3 sequence (P52333 1-1124): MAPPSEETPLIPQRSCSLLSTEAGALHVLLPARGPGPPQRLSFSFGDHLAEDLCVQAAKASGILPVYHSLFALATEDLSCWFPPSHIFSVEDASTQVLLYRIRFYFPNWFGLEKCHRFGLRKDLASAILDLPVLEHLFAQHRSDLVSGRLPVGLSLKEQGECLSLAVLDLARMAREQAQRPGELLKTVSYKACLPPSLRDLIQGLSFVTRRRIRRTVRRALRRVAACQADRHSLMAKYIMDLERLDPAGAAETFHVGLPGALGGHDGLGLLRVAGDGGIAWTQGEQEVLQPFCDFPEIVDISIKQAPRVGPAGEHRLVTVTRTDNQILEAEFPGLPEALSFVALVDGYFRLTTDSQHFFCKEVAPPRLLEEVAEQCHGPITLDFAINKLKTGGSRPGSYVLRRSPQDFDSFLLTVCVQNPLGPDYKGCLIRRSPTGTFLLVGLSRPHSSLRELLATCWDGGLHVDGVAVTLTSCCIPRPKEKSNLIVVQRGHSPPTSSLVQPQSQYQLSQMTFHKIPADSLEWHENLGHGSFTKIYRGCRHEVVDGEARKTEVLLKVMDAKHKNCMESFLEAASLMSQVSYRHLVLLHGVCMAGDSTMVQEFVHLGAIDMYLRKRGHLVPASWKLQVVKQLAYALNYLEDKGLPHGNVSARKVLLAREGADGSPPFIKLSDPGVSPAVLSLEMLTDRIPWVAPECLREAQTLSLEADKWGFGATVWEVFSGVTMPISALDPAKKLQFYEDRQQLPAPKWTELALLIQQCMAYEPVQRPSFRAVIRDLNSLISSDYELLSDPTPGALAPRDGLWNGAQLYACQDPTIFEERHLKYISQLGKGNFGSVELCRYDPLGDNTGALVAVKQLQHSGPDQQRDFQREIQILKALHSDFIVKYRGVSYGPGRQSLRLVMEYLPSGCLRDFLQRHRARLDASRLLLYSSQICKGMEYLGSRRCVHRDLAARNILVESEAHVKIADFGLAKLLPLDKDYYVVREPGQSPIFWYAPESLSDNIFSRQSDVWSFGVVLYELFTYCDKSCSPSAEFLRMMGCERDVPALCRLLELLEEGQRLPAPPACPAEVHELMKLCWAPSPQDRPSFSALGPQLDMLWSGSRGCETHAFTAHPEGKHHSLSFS

[10] = biological target: Tie2(R849W)(h) (Homo sapiens, UniProt Q02763, R849W)
Tie2(R849W)(h), sequence (Q02763 23-1124 R849W): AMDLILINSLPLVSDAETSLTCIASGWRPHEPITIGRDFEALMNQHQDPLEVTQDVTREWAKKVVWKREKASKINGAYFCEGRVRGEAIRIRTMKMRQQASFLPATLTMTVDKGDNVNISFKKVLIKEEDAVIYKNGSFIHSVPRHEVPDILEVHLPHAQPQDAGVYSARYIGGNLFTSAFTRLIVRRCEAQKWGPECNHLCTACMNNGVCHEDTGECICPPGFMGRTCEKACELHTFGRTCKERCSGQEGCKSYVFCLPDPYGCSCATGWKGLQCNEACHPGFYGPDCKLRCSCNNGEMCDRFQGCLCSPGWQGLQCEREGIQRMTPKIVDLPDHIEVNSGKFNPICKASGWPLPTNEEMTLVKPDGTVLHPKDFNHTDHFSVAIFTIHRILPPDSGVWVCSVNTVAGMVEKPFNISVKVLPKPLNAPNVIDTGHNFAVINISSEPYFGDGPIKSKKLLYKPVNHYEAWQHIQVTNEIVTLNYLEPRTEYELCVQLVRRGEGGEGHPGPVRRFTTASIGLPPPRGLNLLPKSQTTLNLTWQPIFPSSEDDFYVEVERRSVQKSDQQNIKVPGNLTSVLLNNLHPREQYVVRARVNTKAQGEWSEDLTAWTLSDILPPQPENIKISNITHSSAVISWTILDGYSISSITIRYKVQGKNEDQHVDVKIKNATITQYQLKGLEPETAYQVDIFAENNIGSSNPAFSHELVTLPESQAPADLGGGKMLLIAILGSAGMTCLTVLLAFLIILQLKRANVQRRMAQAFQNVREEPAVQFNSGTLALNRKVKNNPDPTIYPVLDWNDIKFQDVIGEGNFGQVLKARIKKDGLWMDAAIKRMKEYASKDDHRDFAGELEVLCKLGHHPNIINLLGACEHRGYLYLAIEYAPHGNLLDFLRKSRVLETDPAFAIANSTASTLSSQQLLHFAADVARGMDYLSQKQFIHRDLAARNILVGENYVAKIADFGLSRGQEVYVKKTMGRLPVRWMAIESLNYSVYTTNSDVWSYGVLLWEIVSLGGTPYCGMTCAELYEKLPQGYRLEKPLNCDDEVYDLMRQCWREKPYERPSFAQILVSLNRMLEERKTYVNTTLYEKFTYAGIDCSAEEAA

[11] = biological target: CK2α2(h) (Homo sapiens, UniProt P19784)
CK2α2(h), sequence (P19784 whole entry): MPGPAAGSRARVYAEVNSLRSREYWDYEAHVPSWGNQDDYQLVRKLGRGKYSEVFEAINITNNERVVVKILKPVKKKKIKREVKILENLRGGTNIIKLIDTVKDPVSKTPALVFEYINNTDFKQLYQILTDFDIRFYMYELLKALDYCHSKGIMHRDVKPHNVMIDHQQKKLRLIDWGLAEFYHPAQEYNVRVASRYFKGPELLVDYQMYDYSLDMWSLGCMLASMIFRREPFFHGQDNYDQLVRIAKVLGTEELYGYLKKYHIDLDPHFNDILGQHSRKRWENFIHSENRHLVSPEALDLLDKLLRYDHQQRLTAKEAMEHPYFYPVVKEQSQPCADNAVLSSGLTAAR

[12] = biological target: Snk(h) (Homo sapiens, UniProt Q9NYY3)
Snk(h), sequence (Q9NYY3 whole entry): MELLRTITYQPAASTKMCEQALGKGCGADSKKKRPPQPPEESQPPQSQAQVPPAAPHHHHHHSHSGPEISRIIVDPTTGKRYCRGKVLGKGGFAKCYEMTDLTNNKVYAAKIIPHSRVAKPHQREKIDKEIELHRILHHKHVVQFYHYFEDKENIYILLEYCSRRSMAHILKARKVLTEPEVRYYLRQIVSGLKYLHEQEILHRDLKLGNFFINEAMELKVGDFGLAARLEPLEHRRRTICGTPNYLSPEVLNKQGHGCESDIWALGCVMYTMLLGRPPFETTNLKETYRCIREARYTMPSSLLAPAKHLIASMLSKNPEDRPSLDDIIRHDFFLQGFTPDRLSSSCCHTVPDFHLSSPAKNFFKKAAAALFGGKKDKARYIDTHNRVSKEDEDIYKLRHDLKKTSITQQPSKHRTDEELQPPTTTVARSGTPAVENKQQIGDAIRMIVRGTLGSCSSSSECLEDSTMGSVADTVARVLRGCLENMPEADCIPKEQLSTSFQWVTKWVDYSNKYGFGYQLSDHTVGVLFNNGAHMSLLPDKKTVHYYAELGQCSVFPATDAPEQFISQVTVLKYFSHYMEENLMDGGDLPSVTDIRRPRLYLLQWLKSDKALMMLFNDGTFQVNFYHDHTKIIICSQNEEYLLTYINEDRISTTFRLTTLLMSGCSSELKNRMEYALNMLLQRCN

[13] = biological target: GRK5(h) (Homo sapiens, UniProt P34947)
GRK5(h), sequence (P34947 whole entry): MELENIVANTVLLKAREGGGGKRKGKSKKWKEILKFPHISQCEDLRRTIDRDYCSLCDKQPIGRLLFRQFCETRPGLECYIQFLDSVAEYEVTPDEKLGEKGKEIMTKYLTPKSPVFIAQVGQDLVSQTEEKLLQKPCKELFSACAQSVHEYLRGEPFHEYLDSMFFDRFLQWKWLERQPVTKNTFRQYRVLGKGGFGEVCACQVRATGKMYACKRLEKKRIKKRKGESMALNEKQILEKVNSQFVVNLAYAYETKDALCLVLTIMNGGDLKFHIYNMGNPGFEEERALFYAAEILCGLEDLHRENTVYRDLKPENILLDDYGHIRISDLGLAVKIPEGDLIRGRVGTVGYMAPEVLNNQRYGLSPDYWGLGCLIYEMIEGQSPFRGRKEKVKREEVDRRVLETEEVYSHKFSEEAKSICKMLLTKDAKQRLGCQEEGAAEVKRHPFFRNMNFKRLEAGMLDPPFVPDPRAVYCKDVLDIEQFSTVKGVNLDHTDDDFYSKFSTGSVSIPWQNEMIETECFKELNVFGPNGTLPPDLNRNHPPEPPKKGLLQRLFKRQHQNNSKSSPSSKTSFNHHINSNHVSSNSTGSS

[14] = biological target: PAR-1Bα(h) (Homo sapiens, UniProt Q7KZI7)

HIPK3(h), sequence (Q9H422 whole entry): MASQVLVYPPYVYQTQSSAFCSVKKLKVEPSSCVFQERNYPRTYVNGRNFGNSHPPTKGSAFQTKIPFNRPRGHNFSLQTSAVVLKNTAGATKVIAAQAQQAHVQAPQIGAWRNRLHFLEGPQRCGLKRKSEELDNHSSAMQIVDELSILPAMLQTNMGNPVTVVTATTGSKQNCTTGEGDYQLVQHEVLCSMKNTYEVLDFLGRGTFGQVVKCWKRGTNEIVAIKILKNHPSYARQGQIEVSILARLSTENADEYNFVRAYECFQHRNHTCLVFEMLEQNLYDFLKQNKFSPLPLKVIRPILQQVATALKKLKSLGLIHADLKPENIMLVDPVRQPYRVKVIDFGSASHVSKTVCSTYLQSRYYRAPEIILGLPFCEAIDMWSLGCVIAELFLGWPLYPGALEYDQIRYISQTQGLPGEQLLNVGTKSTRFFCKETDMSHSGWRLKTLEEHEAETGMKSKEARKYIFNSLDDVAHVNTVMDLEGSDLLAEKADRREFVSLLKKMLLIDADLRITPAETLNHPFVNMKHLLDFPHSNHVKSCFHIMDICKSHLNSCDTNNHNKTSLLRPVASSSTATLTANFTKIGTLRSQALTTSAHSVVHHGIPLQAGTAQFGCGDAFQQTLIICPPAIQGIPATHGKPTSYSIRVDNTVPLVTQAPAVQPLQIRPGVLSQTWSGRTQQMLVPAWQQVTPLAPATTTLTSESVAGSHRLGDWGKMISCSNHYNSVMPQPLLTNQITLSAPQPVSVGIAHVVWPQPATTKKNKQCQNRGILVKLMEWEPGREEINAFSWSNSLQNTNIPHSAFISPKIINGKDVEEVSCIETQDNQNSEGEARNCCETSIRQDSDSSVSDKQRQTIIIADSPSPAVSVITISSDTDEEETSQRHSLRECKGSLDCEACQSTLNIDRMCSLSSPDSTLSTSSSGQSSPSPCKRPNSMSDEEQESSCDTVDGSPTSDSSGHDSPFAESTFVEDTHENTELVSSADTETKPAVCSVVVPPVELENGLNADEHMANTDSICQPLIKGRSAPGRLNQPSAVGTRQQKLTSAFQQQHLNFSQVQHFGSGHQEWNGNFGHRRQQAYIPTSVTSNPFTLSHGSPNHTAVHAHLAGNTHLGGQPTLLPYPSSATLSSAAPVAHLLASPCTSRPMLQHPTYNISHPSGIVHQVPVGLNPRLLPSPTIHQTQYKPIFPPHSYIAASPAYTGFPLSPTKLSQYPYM

Row | Sequence | % activity [1] [%] | % activity [2] [%] | % activity [3] [%] | % activity [4] [%] | % activity [5] [%] | % activity [6] [%] | % activity [7] [%] | % activity [8] [%] | % activity [9] [%] | % activity [10] [%] | % activity [11] [%] | % activity [12] [%] | % activity [13] [%] | % activity [14] [%]
1 | FAKLAARLYRKALARQLGVAA [MMI-0300] | 100 | 93 | 155 | 140 | 97 | −2 | 101 | 100 | – | – | – | – | – | –
2 | KAFAKLAARLYRKALARQLGVAA [MMI-0400] | – | – | 195 | – | 98 | – | – | 94 | 122 | 108 | 96 | 131 | 131 | –
3 | HRRIKAWLKKIKALARQLGVAA [MMI-0500] | 70 | 85 | 127 | – | – | 359 | 51 | – | 95 | – | – | 122 | – | 97
4 | YARAAARQARAKALNRQLGVA [MMI-0200] | – | – | 142 | 50 | – | – | – | – | – | 89 | 88 | – | 135 | 110
